B1: hERβT: truncated human estrogen receptor-β lacking the first 45 amino acids (Clone 3) (protein, UniProt Q92731 46-530, looked up, fragment)
chain: MTFYSPAVMNYSIPSNVTNLEGGPGRQTTSPNVLWPTPGHLSPLVVHRQLSHLYAEPQKSPWCEARSLEHTLPVNRETLKRKVSGNRCASPVTGPGSKRDAHFCAVCSDYASGYHYGVWSCEGCKAFFKRSIQGHNDYICPATNQCTIDKNRRKSCQACRLRKCYEVGMVKCGSRRERCGYRLVRRQRSADEQLHCAGKAKRSGGHAPRVRELLLDALSPEQLVLTLLEAEPPHVLISRPSAPFTEASMMMSLTKLADKELVHMISWAKKIPGFVELSLFDQVRLLESCWMEVLMMGLMWRSIDHPGKLIFAPDLVLDRDEGKCVEGILEIFDMLLATTSRFRELKLQHKEYLCVKAMILLNSSMYPLVTATQDADSSRKLAHLLNAVTDALVWVIAKSGISSQQQSMRLANLLMLLSHVRHASNKGMEHLLNMKCKNVVPVYDLLLEMLNAHVLRGCKSSITGSECSPAEDSKSKEGSQNPQSQ
B2: hERβL: full-length human estrogen receptor-β of 530 amino acid residues, SEQ ID NO:2 (protein)
chain: MDIKNSPSSLNSPSSYNCSQSILPLEHGSIYIPSSYVDSHHEYPAMTFYSPAVMNYSIPSNVTNLEGGPGRQTTSPNVLWPTPGHLSPLVVHRQLSHLYAEPQKSPWCEARSLEHTLPVNRETLKRKVSGNRCASPVTGPGSKRDAHFCAVCSDYASGYHYGVWSCEGCKAFFKRSIQGHNDYICPATNQCTIDKNRRKSCQACRLRKCYEVGMVKCGSRRERCGYRLVRRQRSADEQLHCAGKAKRSGGHAPRVRELLLDALSPEQLVLTLLEAEPPHVLISRPSAPFTEASMMMSLTKLADKELVHMISWAKKIPGFVELSLFDQVRLLESCWMEVLMMGLMWRSIDHPGKLIFAPDLVLDRDEGKCVEGILEIFDMLLATTSRFRELKLQHKEYLCVKAMILLNSSMYPLVTATQDADSSRKLAHLLNAVTDALVWVIAKSGISSQQQSMRLANLLMLLSHVRHASNKGMEHLLNMKCKNVVPVYDLLLEMLNAHVLRGCKSSITGSECSPAEDSKSKEGSQNPQSQ
modifications: Human

Experiments:
Assay type in all cases: cell-based
[1] = tested on: NFkB binding site reporter (3x-NFkB TK.LUC) in HepG2 cells; assay: NFkB-luciferase reporter assay in IL-1β-stimulated transfected HepG2 cells; settings: IL-1β and estradiol
Description: FIG. 7A is a graphic illustration of the effect of estradiol stimulation of full-length hERβ (hERβL) and truncated hERβ (hERβT) on NFkB activation in HepG2 cells. Cells were transfected with either hERβL or hERβT and co-transfected with a luciferase reporter plasmid containing three copies of an NFkB binding site (3×-NFkB TK.LUC) and a control β-galactosidase plasmid. Cells were stimulated with interleukin-1β and incubated in the absence or presence of estradiol, after which luciferase activity was measured and normalized to β-galactosidase activity. FIG. 7B is a graphic illustration of luciferase activity in cells transfected with either hERβL or hERβT and co-transfected with a luciferase reporter plasmid lacking an NFkB binding site (TK.LUC).
In a separate experiment, HepG2 cells were transfected with hERβT or […] as above, but the reporter gene consisted of three copies of an NFkB binding site upstream of the TK basal promoter. Transfected cells were incubated with or without interleukin-1β (IL-1β) to activate NFkB and/or with estradiol prior to luciferase determination.

[2] = tested on: ERE (ERE.TK.LUC reporter) in HepG2 cells; assay: ERE-luciferase reporter transactivation in transfected HepG2 cells; settings: in the presence of estradiol
Description: FIG. 6A is a graphic illustration of the transcriptional activation capacity of full-length hERβ (hERβL) and truncated hERβ (hERβT) expressed in HepG2 cells. Cells were transfected with either hERβL or hERβT and co-transfected with a luciferase reporter plasmid containing an estrogen response element (ERE) (ERE.TK.LUC) and a control β-galactosidase plasmid. Cells were incubated in the absence or presence of estradiol, after which luciferase activity was measured and normalized to β-galactosidase activity. FIG. 6B is a graphic illustration of luciferase activity in HepG2 cells transfected with either hERβL or hERβT and co-transfected with a luciferase reporter plasmid lacking an ERE (TK.LUC)
HepG2 cells (ATCC) were transfected in parallel with either pcDNA3-hERβL or pcDNA3-hERβT using the calcium phosphate co-precipitation method. Cells were co-transfected with a reporter plasmid containing a luciferase gene preceded by either an ERE upstream of the thymidine kinase (TK) basal promoter, or the TK basal promoter alone. […] Luciferase activity was measured by a chemiluminescent method using the Promega luciferase assay system, and β-galactosidase activity was measured by Galactolight (Tropix, Inc., Bedford Mass.); luciferase activity was then normalized to β-galactosidase activity.

[3] = tested on: ERE-LacZ reporter (YRpE2) in S. cerevisiae strain BJ2168; assay: ERE-LacZ reporter assay in yeast; settings: 17-β estradiol or Genistein for 3 hours
[4] = tested on: ERE-reporter gene in HAECT-1 cells; assay: ERE-luciferase reporter transactivation in HAECT-1 human endothelial cells; settings: 100 nM 17-β estradiol overnight
Description: FIG. 8 is a graphic illustration of the transcriptional activation capacity of full-length hERβ (hERβL) and truncated hERβ (hERβT) expressed in HAECT-1 human endothelial cells. Cells were transfected with either hERβL or hERβT and co-transfected with a luciferase reporter plasmid containing an ERE (ERE.TK.LUC) or one lacking an ERE (TK.LUC). Cells were incubated in the absence or presence of estradiol, after which luciferase activity was measured. ERE TK.LUC values were normalized to TK.LUC values and are presented as mean±S.E. (n=4).
HAECT-1 cells (a clonal immortalized human aortic endothelia cell line derived by infection with Ad5 ori-SV40 ts A209) were transfected with pcDNA3hERβT or pcDNA3-hERβL and ERE-luciferase plasmids by electroporation. After 4 hours, the cells were treated overnight with or without 100 nM 17-β estradiol prior to luciferase activity measurements. […] In independent experiments, cells transfected under identical conditions were monitored for their levels of estrogen receptors using a ligand binding assay.

| Molecule | attenuation of IL-1β-mediated NFkB transcriptional activation [1] | activity relative to hERβT (ERE activity) [2] | maximal level of estrogen-stimulated LacZ expression relative to hERβT-transformed cells [3] | activity in activating the ERE-reporter gene relative to hERβT [4] |
| --- | --- | --- | --- | --- |
| B1 | no inhibitory activity | – | – | – |
| B2 | capable of attenuating | about 3 fold | 2 fold | 2–3 times |

Source: patent US7157568B1, “Human estrogen receptor-β” (American Home Products Corporation, priority 1997, dated 2007)
